The values below come from patent US20170190781A1 (Kyowa Kirin, published 2017).

The target of experiment [1] is T1, recombinant human DR3-human IgG1-Fc (soluble human DR3(EC)-hG1Fc) (human).
T1 construct: also called huDR3-huFc; hDR3(EC)-hG1Fc
The experiment can be described thus: SPR (Biacore 3000), huDR3-huFc on CM5, Fab as analyte; average KD, n = 2. Here is the method: (§1) Fab antibody fragments of the above mentioned antibodies were obtained following the Pierce Fab Preparation Kit (Thermo Scientific Pierce No. 44985). All of the following manipulations were carried out using a Biacore® 3000 (manufactured by GE Healthcare Bio-Sciences). Recombinant huDR3-huFc protein was immobilized on a CM5 sensor chip (manufactured by GE Healthcare Bio-Sciences) by an amine coupling chemistry.
(§2) In particular, the kinetic assay was carried out by immobilizing on the chip approximately 2000 resonance unit (RU) of recombinant protein, in order to achieve a medium protein immobilization level. Thereafter, the anti-DR3 antibody Fab fragments, diluted from 12 nM concentration in five steps, were allowed to run at a flow rate of 30 μL/min onto the chip for 120 seconds. The dissociation time was 300 seconds and the binding curves were measured at 25° C.
(§3) Regeneration was performed with glycine-HCl, pH 1.5, 60 seconds. The raw data were double referenced by subtraction of the signals from a reference flow cell without captured ligand and a buffer blank. The sensorgram corresponding to each concentration was obtained. […]

Experiment [2] concerns the target T1, recombinant human DR3-human IgG1-Fc …. The experiment can be described thus: SPR, Fab on immobilised DR3-Fc, same as Example 5; n = 3. The procedure: as §1, §2
(§4) Regeneration was performed with glycine-HCl, pH 1.5, 60 seconds. The raw data were double referenced by subtraction of the signals from a reference flow cell without captured ligand and a buffer blank. The sensorgram corresponding to each concentration was obtained. The analysis was carried out using a 1:1 Langmuir fit model, using the analysis software attached to the apparatus, Biacore® 3000 Evaluation software (manufactured by Biacore), thereby calculating an association rate constant ka [1/Ms] and a dissociation rate constant kd [1/s] for the recombinant huDR3-huFc protein.

Experiment [3] has the same target. The experiment in a line: SPR (Biacore 3000), huDR3-huFc amine-coupled on CM5, Fab 12 to 0.375 nM, 1:1 Langmuir fit, 25 C; run 2. The procedure:
as §1, §2, §4

Experiment [4] shares this target. The experiment can be described thus: SPR (Biacore 3000), huDR3-huFc amine-coupled on CM5, Fab 12 to 0.375 nM, 1:1 Langmuir fit, 25 C; run 1. Here is the method:
as §1, §2, §4

Experiment [5] addresses T2, death domain-deleted human DR3 (hDR3ΔDD) on CHO-K1 cells (human, UniProt Q93038 25-345).
T2 construct: also called CHO/DR3; human DR3-expressing CHO cells
T2 sequence: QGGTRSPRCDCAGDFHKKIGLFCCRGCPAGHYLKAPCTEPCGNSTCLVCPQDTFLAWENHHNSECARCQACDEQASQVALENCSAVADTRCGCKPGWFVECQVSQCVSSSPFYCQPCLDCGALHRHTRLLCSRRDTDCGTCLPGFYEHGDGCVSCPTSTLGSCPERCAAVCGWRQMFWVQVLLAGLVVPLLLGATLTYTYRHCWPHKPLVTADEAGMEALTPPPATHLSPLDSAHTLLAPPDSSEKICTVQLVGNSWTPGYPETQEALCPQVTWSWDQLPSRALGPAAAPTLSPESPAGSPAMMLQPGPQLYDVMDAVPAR
The experiment in a line: flow cytometry of hybridoma supernatant on human DR3-expressing CHO cells, anti-human IgG-PE. Here is the method: Supernatants of multiwell plates were screened by flow cytometric binding to human DR3-expressing CHO cells (hereinafter described as CHO/DR3, in case). Cells were incubated at 10,000/well in a 96-well round-bottom assay plate for 15 minutes at 4° C. with a neat supernatant of hybridoma. Cells were pelleted via centrifugation, and washed with 200 μL PBS/0.5% fetal calf serum. […] Cells were washed as described above, and resuspended in 200 μL PBS/0.5% fetal calf serum; >5000 events acquired on an LSR Fortessa flow cytometer (Beckton Dickinson). Results were analyzed using FlowJo (Treestar Inc.).

Experiment [6] addresses T1, recombinant human DR3-human IgG1-Fc …. The experiment in a line: SPR, Fab on immobilised DR3-Fc, same as Example 5; n = 6. The procedure:
as §1, §2, §4

Experiment [7] has the same target. The experiment in a line: SPR, Fab on immobilised DR3-Fc. The procedure: as §1, §2, §4
Target sequence in this assay (chain, as listed by the source limits assumed): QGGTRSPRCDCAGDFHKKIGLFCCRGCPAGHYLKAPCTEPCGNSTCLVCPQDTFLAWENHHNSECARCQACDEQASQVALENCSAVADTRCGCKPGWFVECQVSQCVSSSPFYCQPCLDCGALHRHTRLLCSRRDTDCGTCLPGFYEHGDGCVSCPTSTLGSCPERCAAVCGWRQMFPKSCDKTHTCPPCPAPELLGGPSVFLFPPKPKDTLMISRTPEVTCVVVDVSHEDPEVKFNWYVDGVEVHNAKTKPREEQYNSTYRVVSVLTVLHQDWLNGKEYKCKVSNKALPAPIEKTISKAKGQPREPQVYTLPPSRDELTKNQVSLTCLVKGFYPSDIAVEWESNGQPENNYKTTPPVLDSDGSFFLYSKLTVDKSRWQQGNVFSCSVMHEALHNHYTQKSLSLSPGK
For experiment [8] the target is unchanged. The experiment in a line: SPR, Fab on immobilised DR3-Fc, same as Example 5; n = 23. Here is the method: as §1, §2, §3

Substitutions are numbered along the chain they refer to. Numbers in names are those of the source.

B1: anti-DR3 monoclonal antibody 142S38B Fab fragment (Fab, V domains shown)
VH: EVQLLESGGGLVQPGGSLRLSCAASGFTVSRYAMSWVRQAPGKGLEWVSAISDSGGRTYYADSVMGRFTISRDTSKNTLYLQMNSLRAEDTAVYFCAKEFGDYLDYWGQGTLVTVSS
VL: EIVLTQSPATLSLSPGERATLSCRASQSVSSYLAWYQQKPGQAPRLLIYDASNRATGIPARFSGSGSGTDFTLTISSLEPEDFAVYYCQQRSNWWTFGQGTKVEIK
notes: Fab made with the Pierce Fab Preparation Kit from antibody 142S38B; Human kappa light chain; Only the variable domains are written
Regarding B1, the Kd in experiment [1] was 0.194 nM; in experiment [2], 0.13 nM; in experiment [3], 0.162 nM; in experiment [4] it was 0.225 nM. Besides, the koff was determined as 5.46e-05 s⁻¹ in experiment [3] and 5.37e-05 s⁻¹ in experiment [4]. The figures for the kon in experiment [3] and in experiment [4] were 337000 M⁻¹ s⁻¹ and 239000 M⁻¹ s⁻¹, respectively.

B2: anti-DR3 monoclonal antibody 142S38B (hybridoma supernatant) (antibody, V domains shown)
VH: B1 VH
VL: B1 VL
notes: Human antibody from a KM mouse hybridoma, detected with anti-human IgG-PE; Kappa light chain
Consider B2, for which, in experiment [5], the binding result is “binds”.

B3: anti-DR3 monoclonal antibody 142A2 Fab fragment (Fab, V domains shown)
VH: QVQLQQSGPGLVKPSQTLSLTCAISGDSVSGYSAAWNWIRQSPSRGLEWLGRTYYRSKWYNDYAVSVKSRITINPDTSKNQFSLQLNSVTPEDTAVYYCARDYYGSESYYNGGYYYYGMDVWGQGTTVTVSS
VL: AIQLTQSPSSLSASVGDRVTITCRASPGISSALAWYQQKPGKAPKLLMYDASSLESGVPSRFSGSGSGTDFTLTISSLQPEDFATYYCQQFNDYPLTFGGGTKVEIK
notes: Fab made with the Pierce Fab Preparation Kit from antibody 142A2; also called parental 142A2
For the molecule B3, the Kd in experiment [1] is 2.65 nM; in experiment [6], 3.99 nM; in experiment [3], 1.5 nM; in experiment [4], 3.79 nM.

B4: 142A2-G112R/A51E Fab (Fab, V domains shown)
VH: B3 VH with G112R
VL: B3 VL with A51E
notes: Only the variable domains are written; also called A2-ER
For the molecule B4, the Kd in experiment [6] came to 1.96 nM. Further, the “fold increase of binding affinity against parental 142A2” value (from here on “fold increase of binding affinity”) in experiment [7] is around 2 fold.

B5: 142A2-G112R/A51E/L54Q Fab (Fab, V domains shown)
VH: B3 VH with G112R
VL: B3 VL with A51E, L54Q
notes: Only the variable domains are written; also called A2-EQR; 142A2-EQR
Consider B5, for which, in experiment [2], the Kd is 1.78 nM. Besides, the “fold increase of binding affinity” value in experiment [7] is around 2.2 fold.

B6: 142A2-A51E/L54Q Fab (Fab, V domains shown)
VH: B3 VH
VL: B3 VL with A51E, L54Q
notes: Only the variable domains are written; also called A2-EQ
Turning to B6, the “fold increase of binding affinity” value in experiment [7] was around 1.9 fold. In experiment [8], the Kd worked out at 2.13 nM.

B7: 142A2-G112R/L54Q Fab (Fab, V domains shown)
VH: B3 VH with G112R
VL: B3 VL with L54Q
notes: Only the variable domains are written
B7: in experiment [2], the Kd was found to be 2.37 nM.

B8: 142A2-L54Q Fab (Fab, V domains shown)
VH: B3 VH
VL: B3 VL with L54Q
notes: Only the variable domains are written; also called A2-Q
As for B8, in experiment [2], the Kd stood at 3.04 nM. Further, the “fold increase of binding affinity” value in experiment [7] was around 1.2 fold.

B9: 142A2-G112R Fab (Fab, V domains shown)
VH: B3 VH with G112R
VL: B3 VL
notes: as for B7
On to B9, for which the Kd in experiment [2] is 3.19 nM.

B10: 142A2-A51E Fab (Fab, V domains shown)
VH: B3 VH
VL: B3 VL with A51E
notes: Only the variable domains are written; also called A2-E
Consider B10, for which the Kd in experiment [6] is 2.2 nM. For the same molecule, the “fold increase of binding affinity” value in experiment [7] is around 1.8 fold.
